Reference: the DeepSol protein solubility set

Test: soluble on expression in E. coli; label from the status in PepcDB or PDB records

| Sequence | soluble on expression in E. coli |
| --- | --- |
| MSKLKIAVSDSCPDCFTTQRECIYINESRNIDVAAIVLSLNDVTCGKLDEIDATGYGIPVFIATENQERVPAEYLPRISGVFENCESRREFYGRQLETAASHYETQLRPPFFRALVDYVNQGNSAFDCPGHQGGEFFRRHPAGNQFVEYFGEALFRADLCNADVAMGDLLIHEGAPCIAQQHAAKVFNADKTYFVLNGTSSSNKVVLNALLTPGDLVLFDRNNHKSNHHGALLQAGATPVYLETARNPYGFIGGIDAHCFEESYLRELIAEVAPQRAKEARPFRLAVIQLGTYDGTIYNARQVVDKIGHLCDYILFDSAWVGYEQFIPMMADCSPLLLDLNENDPGILVTQSVHKQQAGFSQTSQIHKKDSHIKGQQRYVPHKRMNNAFMMHASTSPFYPLFAALNINAKMHEGVSGRNMWMDCVVNGINARKLILDNCQHIRPFVPELVDGKPWQSYETAQIAVDLRFFQFVPGEHWHSFEGYAENQYFVDPCKLLLTTPGIDARNGEYEAFGVPATILANFLRENGVVPEKCDLNSILFLLTPAEDMAKLQQLVALLVRFEKLLESDAPLAEVLPSIYKQHEERYAGYTLRQLCQEMHDLYARHNVKQLQKEMFRKEHFPRVSMNPQEANYAYLRGEVELVRLPDAEGRIAAEGALPYPPGVLCVVPGEIWGGAVLRYFSALEEGINLLPGFAPELQGVYIEEHDGRKQVWCYVIKPRDAQSTLLKGEKL | soluble |
| MSKPKYNRVVLKLSGEALAGEQGFGINPAVIKSVAEQVKEIAELDVEVAVVVGGGNIWRGKIGSEMGMDRAGADYMGMLATVMNSLALQDSLENIGIQTRVQTSIEMRQVAEPYIRRKAVRHLEKKRVVIFAAGTGNPYFSTDTTAALRAAEIEADVILMAKNNVDGVYNADPSIDPTATKYETLTYLDVLKEGLGVMDSTASSLCMDNDIPLIVFSVMEKGNIKRAVLGENIGTVVRGKLEHHHHHH | not soluble |
| MSKSSNSDSQKSLPSPGHPSTGRPDLDLITDPLEEQRLEPQRDSHRSDTRGHPSTGRKSHNSTSAQSSVYNSRTDPENAAMDSDEELRKMMEGFVDDEESDPTYEPP | soluble |
| MSKTLKIAIDAGHGPQTPGKRCPDDSMREFHFNSVVARYVRDGLAQYEGVQTMFTHADDGSRDVPLQERTDRANAWGADVFVSIHANASGNGWSDARGIETYVYTTRPAQAVKLAEAVQRNLIKETGLKDRGVKAENFHVLRETKMTAILCECGFMTNREEAELLKSDAYRRKCAKAIVAGIAEVYDLTLKQQAHASEPTYSGKFKDVPDGHYAKGATERLAEKGIMNGIGNGLFGFGKPITREDAAVIVDRAITYLEQKISQK | not soluble |
| MSKTTLVERCYKYIMSNEKNWSPYTVINRKSWVKNYIEPFFKDTKLIDINPVLIQTFINTTFNNCTFSSSKIRYRFISSVLKEAYRLREINENPCDFVKLPLEHHHHHH | soluble |
| MSKVKIELFTSPMCPHCPAAKRVVEEVANEMPDAVEVEYINVMENPQKAMEYGIMAVPTIVINGDVEFIGAPTKEALVEAIKKRL | soluble |
| MSKYKTILQSNKDELHSLYEIANQDSWKPIYHIHPPFGLMNDPNGVSYYNDEYHVFYQWYPFGPIHGMKHWGHVRSKDLINWERMPVAIIPTESYESHGAYSGSAIVKDGLLHLLYTGNIKKPDDSRDAKQCMASMDSQYTMTKYSNNPVIDIIPDGYTKHVRDPKVWKHNDMYYMLLGAQRENKTGTLLLYKSQDLYNWHFQGEITTNLKEFGFMWECPDYFQLSGKDVLLFSPQGIEKDGENFHNVYNVVYAIGHFDIKNLYFHVDSYYEADKGFDFYAPQTLEDSTSRRLLFAWAGSSEITYPSDDYMWAHCLTLPRELTLEDNILKQKPVSELTKLRTTKKDISGDITAGLNVLSTLDDEDSYELIVTLKTEDAKRFGLSLFHNEEECFPITFNREQGTISIDRGNFYHQFGGEYGFERCKKIDIQDTIELQIFVDKSIVEIFLYDGSTVFTSRVFPRKDMKHHIAIFSDAKLNFTITQYKLKRGIVLEHHHHHH | soluble |
| MSLAAELFATRPDTHARERPEAVALIDRDRPVTHAALRAGVLDLAGGLAALGVCRGERVALWLPNCAHWVTMFLACARLGALTLAVNTRFRAQELGDILGRGQADWLVYWPGFKGIDFAGILAAVPPAARARLRGAIVVDGSGAQATPGPAGLAAHALAALHGPAPLPAPNAGVLCFTTSGTTSLPKFVLHDQDTLLRHGDAIARSYGYDDDSRILASAPFCGAFGFATLVGALARGVPVICEPAFDAARSVAAVRRHRVTHTYANNEALVQMFRLGERADFATARLFGFASFAPALGDLLPLARAQGVPLTGLYGSSELIALVAAQPREPADGDVSVRYEPGGALIHPEARVRARDPQDGRILADGESGEIEILAPSLMRGYLDNPQASAGALTDDGYFRTGDLGYTLGTRQFVFQTRMGDSLRLSGFLVNPAEIEQAVEALPGIRACQVVGATRDGKTVPYAFVLLDAGASPDPPGWMAACRQGMAGFKVPAGFQVLEAFPVVESANSAKIQKHKLREQAEALLAAAEGHHHHHH | not soluble |
| MSLAAELLIATGEYAPWTGEQLPDGGYVNRVVREAFAREGVQVRFAYMPWARALEALRNGNAQASSFWYDDPVKAKEFLYSAPISEHRELLFHRKDVTVPPWRKLRDLRGLRFGATHGYTYTAEFRQLMKQGALNVEEANDDKINLLKMLAGRIELFPLDEFTGWQLLTSDAFPRGAHDLVTTEARPFSIQYGHLLMPRSARNEQLMARFNAGLARLRADGTLERFRLDLYRGSGMGEGHHHHHH | soluble |
| MSLAAFQIANKTVGKDAPVFIIAEAGINHDGKLDQAFALIDAAAEAGADAVKFQMFQADRMYQKDPGLYKTAAGKDVSIFSLVQSMEMPAEWILPLLDYCREKQVIFLSTVCDEGSADLLQSTSPSAFKIASYEINHLPLLKYVARLNRPMIFSTAGAEISDVHEAWRTIRAEGNNQIAIMHCVAKYPAPPEYSNLSVIPMLAAAFPEAVIGFSDHSEHPTEAPCAAVRLGAKLIEKHFTIDKNLPGADHSFALNPDELKEMVDGIRKTEAELKQGITKPVSEKLLGSSYKTTTAIEGEIRNFAYRGIFTTAPIQKGEAFSEDNIAVLRPGQKPQGLHPRFFELLTSGVRAVRDIPADTGIVWDDILLKDSPFHEEGGSHHHHHH | soluble |
| MSLAAHWEIAVKNSSRSAVDPFIVMDVMEAARRAEEAGRRIIHMEVGQPGTGAPRGAVEALAKSLETDALGYTVALGLPALRQRIARLYGEWYGVDLDPGRVVITPGSSGGFLLAFTALFDSGDRVGIGAPGYPSYRQILRALGLVPVDLPTAPENRLQPVPADFAGLDLAGLMVASPANPTGTMLDHAAMGALIEAAQAQGASFISDEIYHGIEYEAKAVTALELTDECYVINSFSKYFSMTGWRVGWMVVPEDQVRVVERIAQNMFICAPHASQVAALAALDCDAELQANLDVYKANRKLMLERLPKAGFTRIAPPDGAFYVYADVSDLTDDSRAFAAEILEKAGVAVTPGLDFDPERGAGTLRFSYARATADIEEGLDRLEAFMQARGEGHHHHHH | soluble |
| MSLAAIDKTTVATVNGEKITLGEVDSHLKGVFAQMKSQYGDKYMDDPQVAQQILQQRQSVVQGLVTDKVLGIEADKLGIKPSEEEIKKKVDEQFENIKKGMGDNFDKALEAEGYTEDTFKDVIKNQVINQAVQDYIIKDVKVTDEDAQKYYDENKQQFVAKDSGVLTKHLLFENEEEAQKAYDEIQSGKTTFNDLFTKYENNKSENKKPIAENLGVVPAENSGLVQEFVDGLKPLKEGEISKPIKTQFGYHIIQAGATYEKGAQLPFDDVKSQIIQILKQQKDSEKFKADMDQWKKDLNVKVYDDKLQEGLKISEGHHHHHH | soluble |
| MSLAAVFPLADFRRAGFDRAGESDAWKDSIIKGDCVAALDALPSQSVDAIFADPPYNLQLGGTLHRPDQSLVDAVDDEWDQFASFDAYDAFTRAWLLACRRVLKPNGTIWVIGSYHNIFRVGAMLQNLDFWILNDIVWRKTNPMPNFKGRRFQNAHETMIWASRDPKAKSYTFNYDALKASNDDVQMRSDWLFPICSGHERLKGDDGKKVHPTQKPEALLARIIMASTKPGDIVLDPFFGSGTTGAVAKRLGRHFVGIEREQDYIDAASARITAVEPLGKAELTVMTGKKAEPRVAFNTLVESGLVRPGQVLTDARRRYSAIIRADGTLASGGTAGSIHRLGAKVQGLDACNGWTFWHFEDGDALKPIDDLRTIIRSEMAKAEGHHHHHH | soluble |
| MSLADRLTIGEFSRITHLSIRMLRRYHEQDLLVPAEVDPDTGYRYYSPAQIRPALTVRRFRDLDLPLADLRRFLAAESADGPDDGTAQQVVAAHLRRLEDRLGRTQRAVEVLRELLDPEAEREGHHHHHH | not soluble |
